Among the data in paper PMC6255812, “Structural basis for activation of plasma-membrane Ca^2+-ATPase by calmodulin” (Communications Biology, 2018) are Kd values, retold here.

For assay [1], the target named is T1, ACA8core (core of ACA8, residues 131-1074, construct lacking the regulatory domain) (UniProt Q9LF79 131-1074).
T1 construct: Embedded in MSP1D1/POPC nanodiscs in the assay; also called core enzyme; ACA8 mutant lacking the regulatory domain
T1 sequence (looked up): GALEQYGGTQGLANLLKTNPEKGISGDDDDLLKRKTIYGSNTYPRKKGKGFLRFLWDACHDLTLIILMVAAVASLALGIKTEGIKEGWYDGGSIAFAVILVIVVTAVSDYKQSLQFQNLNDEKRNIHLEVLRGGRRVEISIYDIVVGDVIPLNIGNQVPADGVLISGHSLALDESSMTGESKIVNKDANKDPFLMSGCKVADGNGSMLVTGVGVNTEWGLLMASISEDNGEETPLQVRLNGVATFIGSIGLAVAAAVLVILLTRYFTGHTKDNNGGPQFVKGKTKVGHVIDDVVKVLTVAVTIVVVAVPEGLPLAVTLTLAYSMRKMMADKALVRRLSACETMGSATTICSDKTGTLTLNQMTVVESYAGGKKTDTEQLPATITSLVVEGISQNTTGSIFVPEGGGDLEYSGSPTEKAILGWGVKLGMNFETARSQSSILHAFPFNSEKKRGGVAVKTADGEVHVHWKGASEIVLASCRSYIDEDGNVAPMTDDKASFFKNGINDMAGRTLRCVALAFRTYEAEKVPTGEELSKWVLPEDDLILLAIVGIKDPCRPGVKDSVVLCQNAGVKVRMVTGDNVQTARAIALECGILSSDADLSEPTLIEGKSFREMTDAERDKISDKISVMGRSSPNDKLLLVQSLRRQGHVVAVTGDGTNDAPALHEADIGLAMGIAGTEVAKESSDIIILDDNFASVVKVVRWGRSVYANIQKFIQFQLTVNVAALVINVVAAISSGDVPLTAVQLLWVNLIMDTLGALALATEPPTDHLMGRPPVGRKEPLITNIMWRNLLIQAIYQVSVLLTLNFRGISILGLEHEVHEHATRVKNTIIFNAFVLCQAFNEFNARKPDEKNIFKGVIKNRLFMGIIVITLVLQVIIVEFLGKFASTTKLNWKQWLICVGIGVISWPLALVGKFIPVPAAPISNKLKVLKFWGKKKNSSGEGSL
As to the kind of experiment: fluorescence polarisation; fluorescence anisotropy; 25 µM ACA8core in POPC nanodiscs titrated into 50 nM labelled ACA8RD; 20 °C; 30 mM Tris pH 8.0, 150 mM NaCl, 2 mM CaCl2, 0.5 mM TCEP; one-site model. As to conditions: both partners purified.

For assay [2], the target named is T2, fluorescein-labeled CaM (CaM7 from A. thaliana) (A. thaliana, UniProt P59220 1-149, Alexa Fluor 488 C5 maleimide label (the paper also calls it fluorescein-labeled and FITC-labeled); site not stated).
T2 construct: calmodulin 7 (CaM7), A. thaliana; Same protein as m2 with a thiol-reactive fluorophore; also called FITC-labeled CaM; source: E. coli BL21 Gold (DE3), purified (HiTrap Phenyl HP), labelled, PD10 column
Briefly: fluorescence polarisation; fluorescence anisotropy; full-length ACA8 in POPC nanodiscs titrated into 15 nM labelled CaM; 20 °C; 30 mM Tris pH 8.0, 150 mM NaCl, 2 mM CaCl2, 0.5 mM TCEP; one-site model; apparent. As to conditions: both partners purified.

B1: fluorescein-labeled regulatory domain of ACA8 (ACA8RD, residues 1-130) (domain or fragment)
chain: CMTSLLKSSPGRRRGGDVESGKSEHADSDSDTFYIPSKNASIERLQQWRKAALVLNASRRFRYTLDLKKEQETREMRQKIRSHAHALLAANRFMDMGRESGVEKTTGPATPAGDFGITPEQLVIMSKDHNS
modifications: Alexa Fluor 488 C5 maleimide (the paper also calls it fluorescein) for labelling of the introduced cysteine
notes: a cysteine introduced right before the first residue of the regulatory domain, for site specific labeling with thiol-reactive probes; ACA8 regulatory domain, residues 1-130; also called labeled RD; not shown: His6, N-terminal, cleaved; lipoamyl domain, N-terminal, cleaved
B1 gave a Kd in assay [1] of 1700 nM.

B2: full-length ACA8 (plasma-membrane Ca2+-ATPase ACA8) (enzyme)
chain: MTSLLKSSPGRRRGGDVESGKSEHADSDSDTFYIPSKNASIERLQQWRKAALVLNASRRFRYTLDLKKEQETREMRQKIRSHAHALLAANRFMDMGRESGVEKTTGPATPAGDFGITPEQLVIMSKDHNSGALEQYGGTQGLANLLKTNPEKGISGDDDDLLKRKTIYGSNTYPRKKGKGFLRFLWDACHDLTLIILMVAAVASLALGIKTEGIKEGWYDGGSIAFAVILVIVVTAVSDYKQSLQFQNLNDEKRNIHLEVLRGGRRVEISIYDIVVGDVIPLNIGNQVPADGVLISGHSLALDESSMTGESKIVNKDANKDPFLMSGCKVADGNGSMLVTGVGVNTEWGLLMASISEDNGEETPLQVRLNGVATFIGSIGLAVAAAVLVILLTRYFTGHTKDNNGGPQFVKGKTKVGHVIDDVVKVLTVAVTIVVVAVPEGLPLAVTLTLAYSMRKMMADKALVRRLSACETMGSATTICSDKTGTLTLNQMTVVESYAGGKKTDTEQLPATITSLVVEGISQNTTGSIFVPEGGGDLEYSGSPTEKAILGWGVKLGMNFETARSQSSILHAFPFNSEKKRGGVAVKTADGEVHVHWKGASEIVLASCRSYIDEDGNVAPMTDDKASFFKNGINDMAGRTLRCVALAFRTYEAEKVPTGEELSKWVLPEDDLILLAIVGIKDPCRPGVKDSVVLCQNAGVKVRMVTGDNVQTARAIALECGILSSDADLSEPTLIEGKSFREMTDAERDKISDKISVMGRSSPNDKLLLVQSLRRQGHVVAVTGDGTNDAPALHEADIGLAMGIAGTEVAKESSDIIILDDNFASVVKVVRWGRSVYANIQKFIQFQLTVNVAALVINVVAAISSGDVPLTAVQLLWVNLIMDTLGALALATEPPTDHLMGRPPVGRKEPLITNIMWRNLLIQAIYQVSVLLTLNFRGISILGLEHEVHEHATRVKNTIIFNAFVLCQAFNEFNARKPDEKNIFKGVIKNRLFMGIIVITLVLQVIIVEFLGKFASTTKLNWKQWLICVGIGVISWPLALVGKFIPVPAAPISNKLKVLKFWGKKKNSSGEGSL
notes: Integral membrane protein; in most experiments embedded in MSP1D1 nanodiscs (POPC, POPC/POPG, POPC/soy-PI or deuterated stealth nanodiscs); The nanodisc belt protein is a carrier and not a partner; also called apo-ACA8; ACA8-ND; source: used DDM-solubilised or reconstituted in MSP1D1 nanodiscs (Superdex200)
As for B2, in assay [2], the Kd amounted to 18 nM.
